B1: Tumor necrosis factor alpha-induced protein 8-like protein 2 (Homo sapiens), Q6P589 (parent)
chain: MESFSSKSLALQAEKKLLSKMAGRSVAHLFIDETSSEVLDELYRVSKEYTHSRPQAQRVIKDLIKVAIKVAVLHRNGSFGPSELALATRFRQKLRQGAMTALSFGEVDFTFEAAVLAGLLTECRDVLLELVEHHLTPKSHGRIRHVFDHFSDPGLLTALYGPDFTQHLGKICDGLRKLLDEGKL

Variants of: B1
Settings: with RAC1, P63000-1

With MESFSSKSLALQAEQQLLSKMAGRSVAHLFIDETSSEVLDELYRVSKEYTHSRPQAQRVIKDLIKVAIKVAVLHRNGSFGPSELALATRFRQKLRQGAMTALSFGEVDFTFEAAVLAGLLTECRDVLLELVEHHLTPKSHGRIRHVFDHFSDPGLLTALYGPDFTQHLGKICDGLRKLLDEGKL as the variant, how does the “effect of a mutation on the interaction” value read?
The value was “decreasing interaction strength”.

Which “effect of a mutation on the interaction” value does the source give for MESFSSKSLALQAEKKLLSKMAGASVAHLFIDETSSEVLDELYRVSKEYTHSRPQAQRVIKDLIKVAIKVAVLHRNGSFGPSELALATRFRQKLRQGAMTALSFGEVDFTFEAAVLAGLLTECRDVLLELVEHHLTPKSHGRIRHVFDHFSDPGLLTALYGPDFTQHLGKICDGLRKLLDEGKL here?
Its value is “disrupting interaction strength”.
